*1 amine or outer side, *2 acyl side, *3 side chain or, on linkers, in order; H or OH if unused. Bridges are numbered along the chain shown (N, C = ends). Where no end group is shown, it is not given here. C6F4(1,4-diyl) = Fc1c(F)c([*:2])c(F)c(F)c1[*:1]

For data set [1], the target named is T1, LDH1, tetramer of full length human LDHB subunits (human, UniProt P07195 2-334).
T1 construct: Homotetramer; also called LDHBfl; full length LDHB
Briefly: biochemical and biophysical evaluation, not specified further.

Data set [2] concerns the target T2, human LDH5, tetramer of human LDHA subunits (human, UniProt P00338 1-332). Nature of the data set: MST on tetrameric LDH5, Kd from red-dye raw fluorescence.
Data set [3] addresses T1, LDH1, tetramer of full length human …. Briefly: cell-based or functional assay.
Data set [4] concerns the target T2, human LDH5, tetramer of human LDHA …. Nature of the data set: cell-based or functional assay.
Data set [5] concerns the target T1, LDH1, tetramer of full length human …. Nature of the data set: MST on tetrameric LDH1, 10 to 20 s on time.

T1 sequence (P07195 2-334 limits assumed): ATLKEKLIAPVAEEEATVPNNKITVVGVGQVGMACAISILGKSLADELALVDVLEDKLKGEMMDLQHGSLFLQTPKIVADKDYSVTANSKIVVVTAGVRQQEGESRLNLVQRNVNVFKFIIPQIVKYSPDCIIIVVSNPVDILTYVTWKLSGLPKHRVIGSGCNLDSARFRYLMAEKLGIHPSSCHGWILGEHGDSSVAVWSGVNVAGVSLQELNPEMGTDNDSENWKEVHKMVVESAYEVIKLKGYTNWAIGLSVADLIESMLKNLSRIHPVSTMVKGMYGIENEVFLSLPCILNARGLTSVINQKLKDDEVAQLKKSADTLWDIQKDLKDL

For ATLKEKLIAPVAEEEATVP-NH2 [LB19, LDHB 19 N-terminal amino acid peptide], in data set [1], the binding result was “no binding”.

B1: macrocyclic peptide MP7 (peptide)
peptide: CTLKCKLI-NH2
modifications: linker 1-5 via C6F4(1,4-diyl); N-terminus assumed
SMILES: CC[C@H](C)[C@H](NC(=O)[C@H](CC(C)C)NC(=O)[C@H](CCCCN)NC(=O)[C@@H]1CSc2c(F)c(F)c(c(F)c2F)SC[C@H](N)C(=O)N[C@@H]([C@@H](C)O)C(=O)N[C@@H](CC(C)C)C(=O)N[C@@H](CCCCN)C(=O)N1)C(N)=O
In general, Kd refers to a measure of binding affinity in units of concentration. Low readings indicate a tighter complex, high ones a looser complex. Regarding B1, the Kd in data set [2] was approximately 117 µM; in data set [5], approximately 380 µM. Moreover, the “EC50 of disruption of the tetrameric state (normalised 350 nm intrinsic fluorescence)” value in data set [3] came out at 172 µM. The “ΔTm, thermal denaturation by nanoDSF, 400 µM MP7” value in data set [3] is -1.5 ° C; in data set [4], -5 ° C.

The record behind these values is patent publication US20220289791A1 (UNIVERSIT CATHOLIQUE DE LOUVAIN, published 2022).
